In patent publication US20240368233A1 (University of Washington, published 2024):

Experiments:
[1] = target: T1, LHD101 chainB, split luciferase reporter construct; assay: split luciferase equilibrium binding in lysate
T1 construct: not shown: N-terminal Strep-tag and sfGFP; GS-linker and smBiT or lgBiT
T1 chain: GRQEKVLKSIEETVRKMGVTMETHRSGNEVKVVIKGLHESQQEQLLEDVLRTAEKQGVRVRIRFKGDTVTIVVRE

[2] = target: T1, LHD101 chainB, split luciferase …; assay: split luciferase equilibrium titration in E. coli lysate, constant partner at 1 nM; first-named construct read as the titrated one; no unit beside the number, M from the axis '[Titrated] / M'
[3] = target: T1, LHD101 chainB, split luciferase …; assay: split luciferase association kinetics, 1 nM vs. 10 nM, in lysate
Description: (§1) Assays were performed in 20 mM sodium phosphate, 100 mM NaCl, pH 7.4, 0.05% v/v Tween 20. Reactions were assembled in 96 well plates (Corning, cat #3686) in the presence of Nano-Glo™ substrate (Promega, cat. #N1130) diluted 100× or 500× for kinetics and endpoint measurements respectively (see supplement for detailed information). Luminescence was recorded on a Synergy Neo2 plate reader (BioTek). Kinetic assays were performed under pseudo first-order conditions, with the final concentration of one protein at 1 nM and the other at 10 nM. Dead times between substrate addition and data acquisition were typically 15-30 s. For long kinetic measurements (FIG. 11A), mastermixes of the protein complexes were made and aliquots were sampled at regular intervals. Data were fitted to a single exponential decay function: […]

[4] = target: T1, LHD101 chainB, split luciferase …; assay: split luciferase; affinity of the interface as measured in isolation, used to simulate the ternary complex ABC
[5] = target: T2, 317B; assay: BLI, steady state fit
T2 construct: also called LHD317 B; LHD317B
T2 chain: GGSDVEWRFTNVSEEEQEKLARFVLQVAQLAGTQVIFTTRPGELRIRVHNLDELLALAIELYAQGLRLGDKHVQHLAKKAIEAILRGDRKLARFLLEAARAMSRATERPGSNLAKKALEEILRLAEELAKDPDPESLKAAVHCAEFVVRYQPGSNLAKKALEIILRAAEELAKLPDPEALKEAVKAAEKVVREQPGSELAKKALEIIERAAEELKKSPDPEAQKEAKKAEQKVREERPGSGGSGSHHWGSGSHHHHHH
Description: (§2) Biolayer interferometry experiments were performed on an OctetRED96 BLI system (ForteBio, Menlo Park, CA). Streptavidin coated biosensors were first equilibrated for at least 10 minutes in Octet buffer (10 mM HEPES pH 7.4, 150 mM NaCl, 3 mM EDTA, 0.05% Surfactant P20) supplemented with 1 mg/ml Bovine Serum Albumin (SigmaAldrich). Enzymatically biotinylated designs were immobilized onto the biosensors by dipping the biosensors into a solution with 10-50 nM protein for 30-120 s. This was followed by dipping in fresh octet buffer to establish a baseline for 120 s. Titration experiments were performed at 25° C. while rotating at 1,000 r.p.m. Association of designs was allowed by dipping biosensors in solutions containing designed protein diluted in octet buffer until equilibrium was approached followed by dissociation by dipping the biosensors into fresh buffer solution in order to monitor the dissociation kinetics. Steady-state and global kinetic fits were performed using the manufacturer's software (Data Analysis 9.1) assuming a 1:1 binding model.

[6] = target: T2, 317B; assay: BLI, global kinetic fit, 1:1 model
Description: as §2

[7] = target: the molecule itself; assay: SEC titration of the protomer alone at several injection concentrations (Superdex 75, normalised A230); self-association
[8] = target: T3, LHD202 chainB; assay: BLI, steady state fit
T3 construct: also called LHD202B
T3 chain: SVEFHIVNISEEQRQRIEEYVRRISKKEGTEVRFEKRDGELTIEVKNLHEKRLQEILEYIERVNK
Description: as §2

[9] = target: T3, LHD202 chainB; assay: BLI, global kinetic fit, 1:1 model
Description: as §2

[10] = target: T4, LHD101 chainB; assay: BLI, steady state fit
T4 construct: also called LHD101B
T4 chain: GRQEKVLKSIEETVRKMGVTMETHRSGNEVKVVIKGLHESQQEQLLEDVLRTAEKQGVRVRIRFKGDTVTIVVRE
Description: as §2

[11] = target: T4, LHD101 chainB; assay: BLI, global kinetic fit, 1:1 model
Description: as §2

[12] = target: T4, LHD101 chainB; assay: BLI, dissociation rate constant (kdis)
Description: as §2

[13] = target: the molecule itself; assay: SEC titration (self-association)
[14] = target: T4, LHD101 chainB; assay: BLI
Description: FIG. 8A-E. Characterization LHD binding in vitro. A: Designed models heterodimers (top row). Middle row, SEC binding experiments performed on a Superdex™ 75 column. Bottom row, biolayer interferometry kinetic binding traces. […] C: Kinetic binding traces from BLI. Equilibrium responses were used to fit equilibrium binding curves D: Equilibrium binding curves of LHDs from biolayer interferometry binding assays with data from C. […] Biotinylated unfused protomers were immobilized on streptavidin coated biosensors.
Biolayer interferometry experiments were performed on an OctetRED96 BLI system (ForteBio, Menlo Park, CA). Streptavidin coated biosensors were first equilibrated for at least 10 minutes in Octet buffer (10 mM HEPES pH 7.4, 150 mM NaCl, 3 mM EDTA, 0.05% Surfactant P20) supplemented with 1 mg/ml Bovine Serum Albumin (SigmaAldrich). Enzymatically biotinylated designs were immobilized onto the biosensors by dipping the biosensors into a solution with 10-50 nM protein for 30-120 s. This was followed by dipping in fresh octet buffer to establish a baseline for 120 s. Titration experiments were performed at 25° C. while rotating at 1,000 r.p.m. […]

[15] = target: T5, LHD29 chainB, split luciferase reporter construct; assay: split luciferase equilibrium binding in lysate
T5 construct: not shown: N-terminal Strep-tag and sfGFP; GS-linker and smBiT or lgBiT
T5 chain: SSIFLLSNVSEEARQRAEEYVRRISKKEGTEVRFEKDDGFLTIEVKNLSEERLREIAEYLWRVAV

[16] = target: T5, LHD29 chainB, split luciferase reporter …; assay: split luciferase association kinetics, 1 nM vs. 10 nM, in lysate
Description: as §1

[17] = target: T5, LHD29 chainB, split luciferase reporter …; assay: split luciferase; affinity of the interface as measured in isolation, used to simulate the ternary complex ABC
[18] = target: T6, LHD274 chainB, split luciferase reporter construct; assay: split luciferase association kinetics, 1 nM vs. 10 nM, in lysate
T6 construct: not shown: N-terminal Strep-tag and sfGFP; GS-linker and smBiT or lgBiT
T6 chain: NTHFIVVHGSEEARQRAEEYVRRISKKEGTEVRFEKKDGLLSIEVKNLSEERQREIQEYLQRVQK
Description: as §1

[19] = target: T7, LHD206 chainB, split luciferase reporter construct; assay: split luciferase equilibrium binding in lysate
T7 construct: not shown: N-terminal Strep-tag and sfGFP; GS-linker and smBiT or lgBiT
T7 chain: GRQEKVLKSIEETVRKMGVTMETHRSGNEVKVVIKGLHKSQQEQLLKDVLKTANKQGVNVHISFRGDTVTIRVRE

[20] = target: T7, LHD206 chainB, split luciferase …; assay: split luciferase association kinetics, 1 nM vs. 10 nM, in lysate
Description: as §1

[21] = target: T8, LHD202 chainB, split luciferase reporter construct; assay: as above
T8 construct: not shown: N-terminal Strep-tag and sfGFP; GS-linker and smBiT or lgBiT
T8 chain: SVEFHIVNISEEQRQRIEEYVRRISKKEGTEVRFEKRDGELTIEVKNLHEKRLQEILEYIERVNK
Description: as §1

[22] = target: T9, 101B4, split luciferase reporter construct; assay: split luciferase equilibrium binding in lysate
T9 construct: not shown: N-terminal Strep-tag and sfGFP; GS-linker and smBiT or lgBiT
T9 chain: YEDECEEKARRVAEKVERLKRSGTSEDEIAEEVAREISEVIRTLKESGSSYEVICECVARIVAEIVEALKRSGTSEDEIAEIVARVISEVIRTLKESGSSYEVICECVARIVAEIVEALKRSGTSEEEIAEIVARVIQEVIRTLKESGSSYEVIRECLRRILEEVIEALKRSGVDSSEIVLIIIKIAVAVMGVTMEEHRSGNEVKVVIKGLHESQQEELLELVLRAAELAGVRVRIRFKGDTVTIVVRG

[23] = target: T9, 101B4, split luciferase reporter …; assay: split luciferase association kinetics, 1 nM vs. 10 nM, in lysate
Description: as §1

[24] = target: T10, 101B82, split luciferase reporter construct; assay: split luciferase equilibrium binding in lysate
T10 construct: not shown: N-terminal Strep-tag and sfGFP; GS-linker and smBiT or lgBiT
T10 chain: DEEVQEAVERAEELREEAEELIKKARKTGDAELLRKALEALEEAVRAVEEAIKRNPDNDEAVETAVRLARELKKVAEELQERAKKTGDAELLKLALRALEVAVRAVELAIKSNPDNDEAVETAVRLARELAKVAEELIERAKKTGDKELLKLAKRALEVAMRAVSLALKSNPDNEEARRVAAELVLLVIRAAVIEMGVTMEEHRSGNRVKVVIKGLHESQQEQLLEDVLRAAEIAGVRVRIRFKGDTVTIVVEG

B1: LHD101 chainA, split luciferase reporter construct (designed binder)
chain: GRQEKVLKSIEETVRKMGVTMETHRSGNEVKVVIKGLHIKQQRQLYRDVRETSKKQGVETEIEVEGDTVTIVVRE
notes: not shown: N-terminal Strep-tag and sfGFP; GS-linker and smBiT or lgBiT
Kd [1]: 20 nM | Kd [2]: 37 nM | kobs [3]: 0.04 s⁻¹ | Kd [4]: 5 nM

B2: LHD317 chainA (designed binder)
chain: GRQEKVLKSIEETVRKMGVRMLTHRGGNAVIVVIEGLHPSQAEQLLRDVHRTAKKQGVTVHLVFTGDIVVIMVVVGASEEEQEEMHRLVREIAEALHEAKRKGANEEQLEQLLRELLERAEREG
notes: also called LHD317A
Kd [5]: 56 nM | Kd [6]: 34.7 nM | koff [6]: 0.0051 s⁻¹ | kon [6]: 150000 M⁻¹ s⁻¹ | binding result [7]: no binding (tested: 57.4 uM)

B3: LHD202 chainA (designed binder)
chain: GRQEKVLKSIEETVRKMGVTMETHRSGNKVKVVIKGLHESQQEQLRKDVHETLRKQGVVAVTQKHGDTVTIYVTE
notes: also called LHD202A
Kd [8]: 2400 nM | Kd [9]: 4800 nM | koff [9]: 0.29 s⁻¹ | kon [9]: 60000 M⁻¹ s⁻¹

B4: LHD101 chainA (designed binder)
chain: GRQEKVLKSIEETVRKMGVTMETHRSGNEVKVVIKGLHIKQQRQLYRDVRETSKKQGVETEIEVEGDTVTIVVRE
notes: also called LHD101A
Kd [10]: 9.5 nM | Kd [11]: 1.9 nM | koff [11]: 0.0043 s⁻¹ | kon [11]: 2.2e+06 M⁻¹ s⁻¹ | koff [12]: 0.0214 s⁻¹ | binding result [13]: no binding (tested: above 100 µM) | kon [14]: 1e+06 M⁻¹ s⁻¹

B5: LHD29 chainA, split luciferase reporter construct (designed binder)
chain: TWQWVLINISEEARQRIEEYVRRISKKEGTEVHFEKDDGVLHIRVKNLHEKRAREIHEYAKRVIL
notes: as for B1
Kd [15]: 60 nM | kobs [16]: 0.0003 s⁻¹ | Kd [17]: 50 nM

B6: LHD274 chainA, split luciferase reporter construct (designed binder)
chain: TTNFHLINGSEEARQRIEEYVRRISKKEGTEVHFEKSDGTLEIRVKNLHEKREREIKEYIERVLL
notes: as for B1
kobs [18]: 0.0014 s⁻¹

B7: LHD206 chainA, split luciferase reporter construct (designed binder)
chain: TDELLERLRQLFEELHERGTEIVVEVHINGRKTEIEVQGIDKRLLKIILEVIREEIEREGSSEVEVNVHSGGQTWTFNEK
notes: as for B1
Kd [19]: 11 nM | kobs [20]: 0.01 s⁻¹

B8: LHD202 chainA, split luciferase reporter construct (designed binder)
chain: GRQEKVLKSIEETVRKMGVTMETHRSGNKVKVVIKGLHESQQEQLRKDVHETLRKQGVVAVTQKHGDTVTIYVTE
notes: as for B1
kobs [21]: 0.018 s⁻¹

B9: 101A53, split luciferase reporter construct (designed binder)
chain: NDEKEKLKELLKRAEELAKSPDPEDLKEAVRLAEEVVRERPGSNLAKKALEIILRAAEELAKLPDPEALKEAVKAAEKVVREQPGSNLAKKALEIILRAAAALANLPDPESRKEADKAADKVRREQPGSELAVVAAIISAVARMGVKMELHPSGNEVKVVIKGLHIKQQRQLYRDVREAAKKAGVEVEIEVEGDTVTIVVRG
notes: also called LHD101-A53-B4 (A53 half); not shown: N-terminal Strep-tag and sfGFP; GS-linker and smBiT or lgBiT
Kd [22]: 4 nM | kobs [23]: 0.026 s⁻¹

B10: 101A21, split luciferase reporter construct (designed binder)
chain: SEKEKVEELAQRIREQLPDTELAREAQELADEARKSDDSEALKVVYLALRIVQQLPDTELAREALELAKEAVKSTDSEKLKVVYLALRVVQQLPDTEEARKALEIAKEAVKADAQILLAIARAVLKMGVEMEVHPSGNEVKVVIKGLHIKQQRQLYRDVREAAKKAGVEVEIEVEGDTVTIVVRE
notes: also called LHD101-A21-B82 (A21 half); not shown: N-terminal Strep-tag and sfGFP; GS-linker and smBiT or lgBiT
Kd [24]: 11 nM
